Experiments:
Test in all cases: EC50 of free RNA motif oligo competing protein binding to immobilised probe
[1] = biological target: SF3B6 (UniProt Q9Y3B4)
Method in brief: (§1)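 Free RNA oligos (0 nM to 30 μM) were pre-incubated with HEK293-FT lysate (2.5 mg protein/well) for 1 h at 4°C, followed by 30 min at 4°C with the same 5′-amino-C6 oligos coupled to NHS-Sepharose beads. Bound proteins were quantified by label-free LC-MS/MS and normalised to the control. EC50 was derived from a four-parameter log-logistic fit, and Kd was obtained by multiplying EC50 by a protein-dependent depletion factor.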

[2] = biological target: HNRNPU (UniProt Q00839)
Method in brief: as §1

[3] = biological target: MRPL53 (UniProt Q96EL3)
Method in brief: as §1

[4] = biological target: RPS19 (UniProt P39019)
Method in brief: as §1

[5] = biological target: RPS3 (UniProt P23396)
Method in brief: as §1

[6] = biological target: T1, DHX37 (UniProt Q8IY37)
T1 sequence: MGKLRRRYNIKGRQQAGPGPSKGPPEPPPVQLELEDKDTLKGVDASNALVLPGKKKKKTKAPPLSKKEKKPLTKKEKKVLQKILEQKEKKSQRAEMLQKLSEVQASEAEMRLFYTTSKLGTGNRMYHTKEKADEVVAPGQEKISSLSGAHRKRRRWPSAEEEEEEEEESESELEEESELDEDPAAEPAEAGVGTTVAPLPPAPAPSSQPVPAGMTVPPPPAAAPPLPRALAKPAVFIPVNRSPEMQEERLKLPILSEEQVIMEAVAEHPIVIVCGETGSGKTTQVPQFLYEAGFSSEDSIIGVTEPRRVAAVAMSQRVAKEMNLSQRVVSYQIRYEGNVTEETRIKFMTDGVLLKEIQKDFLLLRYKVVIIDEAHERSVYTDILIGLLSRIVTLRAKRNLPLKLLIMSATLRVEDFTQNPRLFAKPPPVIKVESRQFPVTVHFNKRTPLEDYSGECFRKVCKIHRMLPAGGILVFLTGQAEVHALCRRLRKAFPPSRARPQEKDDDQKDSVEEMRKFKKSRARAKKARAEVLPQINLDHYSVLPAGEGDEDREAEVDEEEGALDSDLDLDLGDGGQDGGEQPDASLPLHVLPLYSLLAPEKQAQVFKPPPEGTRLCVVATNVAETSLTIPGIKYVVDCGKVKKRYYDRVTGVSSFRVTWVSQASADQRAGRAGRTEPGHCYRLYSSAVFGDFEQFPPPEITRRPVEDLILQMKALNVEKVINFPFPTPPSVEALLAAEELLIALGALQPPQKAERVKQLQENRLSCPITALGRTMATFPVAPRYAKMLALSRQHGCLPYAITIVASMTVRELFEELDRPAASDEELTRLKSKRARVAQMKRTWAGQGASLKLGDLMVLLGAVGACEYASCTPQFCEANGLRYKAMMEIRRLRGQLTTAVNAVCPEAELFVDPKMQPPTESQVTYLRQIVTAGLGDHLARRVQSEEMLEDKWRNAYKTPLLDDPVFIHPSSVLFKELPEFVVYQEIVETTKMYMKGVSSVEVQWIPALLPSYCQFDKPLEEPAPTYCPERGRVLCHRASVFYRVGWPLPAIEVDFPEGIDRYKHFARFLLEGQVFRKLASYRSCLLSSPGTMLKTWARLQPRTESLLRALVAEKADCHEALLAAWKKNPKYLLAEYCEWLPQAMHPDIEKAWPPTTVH
Method in brief: as §1

[7] = biological target: T2, FASTKD2 (UniProt Q9NYY8)
T2 sequence: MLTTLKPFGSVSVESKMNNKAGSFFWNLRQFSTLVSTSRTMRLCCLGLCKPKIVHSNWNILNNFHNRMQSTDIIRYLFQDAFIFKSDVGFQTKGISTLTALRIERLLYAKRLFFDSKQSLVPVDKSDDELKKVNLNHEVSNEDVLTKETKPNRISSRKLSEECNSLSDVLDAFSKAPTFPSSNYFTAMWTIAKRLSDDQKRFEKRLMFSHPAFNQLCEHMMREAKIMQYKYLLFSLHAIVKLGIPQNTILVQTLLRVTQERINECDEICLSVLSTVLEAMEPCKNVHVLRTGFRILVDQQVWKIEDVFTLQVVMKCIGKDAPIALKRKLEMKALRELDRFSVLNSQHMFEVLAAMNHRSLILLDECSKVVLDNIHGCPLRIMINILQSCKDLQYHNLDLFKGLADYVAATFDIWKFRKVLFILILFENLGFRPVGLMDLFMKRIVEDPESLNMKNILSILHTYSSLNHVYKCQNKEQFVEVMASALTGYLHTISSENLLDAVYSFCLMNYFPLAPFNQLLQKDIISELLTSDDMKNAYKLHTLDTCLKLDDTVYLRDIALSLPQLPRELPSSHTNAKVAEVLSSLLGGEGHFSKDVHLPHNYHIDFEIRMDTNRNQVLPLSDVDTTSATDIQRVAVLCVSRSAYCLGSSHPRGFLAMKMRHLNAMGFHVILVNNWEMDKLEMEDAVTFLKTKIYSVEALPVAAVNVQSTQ
Method in brief: as §1

Sequence of HNRNPU (Q00839 whole entry): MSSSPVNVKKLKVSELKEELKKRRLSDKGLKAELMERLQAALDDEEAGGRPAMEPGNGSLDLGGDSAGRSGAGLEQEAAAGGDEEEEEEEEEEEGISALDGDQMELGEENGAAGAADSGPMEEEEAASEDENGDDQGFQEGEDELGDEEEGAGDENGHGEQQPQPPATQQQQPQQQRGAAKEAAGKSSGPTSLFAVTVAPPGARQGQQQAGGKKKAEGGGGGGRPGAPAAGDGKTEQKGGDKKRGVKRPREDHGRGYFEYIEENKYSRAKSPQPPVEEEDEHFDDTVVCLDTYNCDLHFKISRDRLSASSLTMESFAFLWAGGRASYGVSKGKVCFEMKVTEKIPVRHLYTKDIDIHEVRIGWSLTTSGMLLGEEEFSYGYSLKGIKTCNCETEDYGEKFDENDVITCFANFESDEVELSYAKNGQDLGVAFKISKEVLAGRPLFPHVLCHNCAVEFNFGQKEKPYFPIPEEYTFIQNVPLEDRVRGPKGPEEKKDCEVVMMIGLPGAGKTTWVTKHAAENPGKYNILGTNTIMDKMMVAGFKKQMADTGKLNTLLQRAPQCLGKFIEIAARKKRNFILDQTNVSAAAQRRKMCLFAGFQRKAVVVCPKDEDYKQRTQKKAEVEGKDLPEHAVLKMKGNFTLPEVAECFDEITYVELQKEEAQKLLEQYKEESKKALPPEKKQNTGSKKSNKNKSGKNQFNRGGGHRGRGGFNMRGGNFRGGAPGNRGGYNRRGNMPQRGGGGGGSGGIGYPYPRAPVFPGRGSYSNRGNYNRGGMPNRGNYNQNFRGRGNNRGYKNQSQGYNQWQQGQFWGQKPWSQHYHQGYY
Sequence of SF3B6 (Q9Y3B4 whole entry): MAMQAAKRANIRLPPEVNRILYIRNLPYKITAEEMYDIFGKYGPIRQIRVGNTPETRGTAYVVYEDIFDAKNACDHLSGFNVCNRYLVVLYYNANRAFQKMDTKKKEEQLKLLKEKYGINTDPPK

Q: Which EC50 [1] does the source give for AAUAAA here?
A: 4.62 µM

Q: CUGUCCU was tested. Which EC50 [2] did it give?
A: 0.378 µM

Q: And the EC50 [3]?
A: 0.103 µM

Q: What about the EC50 [4] of the same sequence?
A: 0.176 µM

Q: What about the EC50 [5] of the same sequence?
A: 0.307 µM

Q: Which results are given for UAUUUAU?
A: EC50 [6]: 4.68 µM; EC50 [7]: 7.86 µM
